Measured values taken from US20170101466A1 (published 2017).

T1: human APRIL (human, UniProt O75888 105-250, limits assumed)
T1 construct: Bought recombinant protein; also called hAPRIL
T1 sequence (looked up): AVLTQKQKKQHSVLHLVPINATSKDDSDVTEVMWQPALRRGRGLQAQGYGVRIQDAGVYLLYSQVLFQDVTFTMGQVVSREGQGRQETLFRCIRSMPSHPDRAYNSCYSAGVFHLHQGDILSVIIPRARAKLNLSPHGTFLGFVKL

T2: human TACI (R&D Systems receptor chimera) (human, UniProt O14836 2-166)
T2 construct: also called hTACI; TACI rec Human
T2 sequence (looked up): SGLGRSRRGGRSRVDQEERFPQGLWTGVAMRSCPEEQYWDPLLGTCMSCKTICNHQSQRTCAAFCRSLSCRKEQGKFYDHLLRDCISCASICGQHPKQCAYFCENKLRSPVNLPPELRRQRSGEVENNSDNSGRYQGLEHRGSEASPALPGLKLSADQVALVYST

B1: 4A2 IgG expressed in HEK293 cells (antibody, V domains shown)
VH: QVQLVQSGGGVVQPGRSLRLSCAASGFTFSSYGMHWVRQAPGKGLEWVAVISHDGSNKYYADSVKGRFTISRDNSKNTLYLQMNSLRAEDTAVYYCAKDRSYYDILTGYYIPYYYGMDVWGQGTTVTVSS
VL: QAVLTQPPSASGTPGQKVTISCSGSSSDIGSNNVNWYQQFPGTAPKLLIHSNNLRPSGVPVRFSGSKSGTSASLAISGLQSEDEADYYCSAWDDSVNGVAFGGGTKLTVLG
notes: IgG from HEK293-FreeStyle cells
B2: mouse TACI (R&D Systems receptor chimera) (receptor, UniProt Q9ET35 2-129, looked up, not shown: a dimerising Fc or GST)
chain: AMAFCPKDQYWDSSRKSCVSCALTCSQRSQRTCTDFCKFINCRKEQGRYYDHLLGACVSCDSTCTQHPQQCAHFCEKRPRSQANLQPELGRPQAGEVEVRSDNSGRHQGSEHGPGLRLSSDQLTLYCT
notes: also called mTACI; TACI rec Mouse
B3: 5B7 IgG expressed in HEK293 cells (antibody, V domains shown)
VH: QVQLVQSGAEVKKPGASVKVSCKASGGTFSSYAISWVRQAPGQGLEWMGGIIPIFGTANYAQKFQGRVTITADKSTSTAYMELSSLRSEDTAVYYCARVDYDILTGYYMGYFDYWGQGTLVTVSS
VL: DIVMTQSPATLSLSPGERATLSCRASQSVSSYLAWYQQKPGQAPRLLIYDASNRATGIPARFSGSGSGTDFTLTISSLEPEDFAVYYCQQRSNWPITFGQGTRLEIKR
notes: also called 5B7 (293); 5B7-HEK293
B4: mouse APRIL (ligand, UniProt Q9D777 96-241, looked up)
chain: AVLTQKHKKKHSVLHLVPVNITSKADSDVTEVMWQPVLRRGRGLEAQGDIVRVWDTGIYLLYSQVLFHDVTFTMGQVVSREGQGRRETLFRCIRSMPSDPDRAYNSCYSAGVFHLHQGDIITVKIPRANAKLSLSPHGTFLGFVKL
notes: Bought recombinant protein; also called mAPRIL
B5: 1F4 IgG expressed in HEK293 cells (antibody, V domains shown)
VH: QVTLKESGPTLVKPTQTLTLTCTFSGFSLSTSRVGVGWIRQPPGKALEWLARIDWDDDKYYSTSLKTRLTISKDTSKNQVVLTMTNMDPVDTATYYCARTHTYYDILTGYSYHVYFDYWGQGTLVTVSS
VL: QSALTQPPSASGSRGQSVSISCSGSRSDIGYYNYVSWYQQHPGKAPKLIIFDVNKRPSGVPDRFSGSKSGNTASLTVSGLQPEDEADYYCASYGGRNNLLFGGGTQLTVLG
notes: IgG from HEK293-FreeStyle cells; also called IF4

Experiments:
soluble cynomolgus BLyS = biological target: T3, soluble cynomolgus BLyS (cynomolgus, UniProt A0A2K5V2X4 134-285); test: ELISA, soluble cyBLyS
T3 construct: Soluble form; also called cyBLyS; Soluble cyBLyS

soluble human BLyS [1] = biological target: T4, soluble human BLyS (human, UniProt Q9Y275 134-285); test: blocking of biotinylated soluble hBLyS binding to immobilized mBR3; hBLyS/mBR3 receptor blocking assay; no blocking up to 100 nM
T4 construct: also called hBLyS; human BAFF (BLyS)

soluble human BLyS [2] = biological target: T4, soluble human BLyS; test: ELISA, soluble hBLyS; soluble hBLyS ELISA (weak, IC50 28 nM)
soluble mouse BLyS [3] = biological target: T5, soluble mouse BLyS (mouse, UniProt Q9WU72 127-309); test: Biacore
T5 construct: europium-labelled in DELFIA; also called mBLyS; mouse BAFF (BLyS)

soluble mouse BLyS [4] = biological target: T5, soluble mouse BLyS; test: ELISA, soluble mBLyS
mouse APRIL [5] = biological target: B4; test: Biacore, binder captured, APRIL injected at 50 nM
Description: (§1) Recombinant protein NG (Thermo Scientific, Cat #21186) was diluted to 100 μg/ml in 10 mM Sodium Acetate pH 4.0 and then immobilized on the surface of a pre-activated Series S CM4 Biacore chip (GE, Cat #BR-1005-34) using amine coupling. […] Binding response was measured as the difference in total RU increase during 300 second APRIL injection of each individual flow cell and the reference flow cell (e.g., Flow cell 2-1).

human APRIL [6] = biological target: T1, human APRIL; test: Biacore, binder captured, APRIL injected at 50 nM
Description: as §1

soluble mouse BLyS [7] = biological target: T5, soluble mouse BLyS; test: Biacore T100, binder captured by anti-human Fc, BLyS injected, 1:1 model
Description: (§2) A Series S CM5 Chip (GE Healthcare) was amine coupled with an anti-human Fc capturing antibody (GE Healthcare Human Fc Kit) to >10,000 RUs. Sample antibodies were diluted in 1×HBS-EP+ running buffer to 0.15 ug/mL and injected for 45 seconds at 10 uL/min. […] Biacore Evaluation software was used to fit the data to a 1:1 Binding Model.

soluble human BLyS [8] = biological target: T4, soluble human BLyS; test: as above
Description: as §2

soluble mouse BLyS [9] = biological target: T5, soluble mouse BLyS; test: DELFIA competition, Eu-mBLyS binding to coated BCMA
Description: (§3) After 5× washing with 200 ul/well of DELFIA 1× wash solution (PE, Cat #4010-0010), plates were blocked with 3% BSA purified from trace heavy metal amounts (PE, Cat #CR84-100) for 3 hours with shaking at room temperature. Plates were washed again five times at 200 μl/well with DELFIA wash solution.
(§4) The final 3 wells across the plate served as controls (2 wells contained 2,000 pM mAbs for negative and background controls while the third contained no mAbs for positive control). […] After 18-24 hrs at 4° C., plates were read on PE EnVision plate reader with laser excitation, LANCE/DELFIA top mirror, and emission filter Eu-615 with a delay of 400 μs. Data were fit to four parameter (variable slope) inhibition dose response curve using GraphPad PRISM 5.0 software.

soluble human BLyS [10] = biological target: T4, soluble human BLyS; test: ELISA, soluble hBLyS
soluble human BLyS [11] = biological target: T4, soluble human BLyS; test: DELFIA competition, Eu-hBLyS binding to coated BCMA
Description: as §3, §4

soluble mouse BLyS [12] = biological target: T5, soluble mouse BLyS; test: Biacore, antibody captured on chip, BLyS injected, 1:1 model, 25 C
Description: (§5) Recombinant protein NG (Thermo Scientific, Cat #21186) was diluted to 100 μg/ml in 10 mM sodium acetate pH 4.0 and then immobilized on the surface of a pre-activated Series S CM5 Biacore chip (GE, Cat #BR-1005-34) using amine coupling. […] After the dissociation period, the chip was regenerated back to baseline by injecting 10 mM glycine pH 1.5 for 120 seconds over the four flow cells. […] The entire data set was fit to a 1:1 interaction model to give kₒₙ, koff, and Kd values. The assay was run at 25° C. in 1× biacore running buffer HBS-EP+ (GE, Cat #BR-1006-69).

soluble human BLyS [13] = biological target: T4, soluble human BLyS; test: as above
Description: as §5

soluble mouse BLyS [14] = biological target: T5, soluble mouse BLyS; test: DELFIA competition, Eu-mBLyS binding to coated BR3
Description: as §3, §4

soluble human BLyS [15] = biological target: T4, soluble human BLyS; test: DELFIA competition, Eu-hBLyS binding to coated BR3
Description: as §3, §4

mouse APRIL [16] = biological target: B4; test: Biacore, antibody captured, APRIL injected
Description: as §1

human APRIL [17] = biological target: T1, human APRIL; test: Biacore, antibody captured, APRIL injected
Description: as §1

soluble mouse BLyS [18] = biological target: T5, soluble mouse BLyS; test: DELFIA competition, Eu-mBLyS binding to coated TACI
Description: as §3, §4

soluble human BLyS [19] = biological target: T4, soluble human BLyS; test: blocking of biotinylated soluble hBLyS binding to immobilized mBR3
soluble human BLyS [20] = biological target: T4, soluble human BLyS; test: Biacore
soluble mouse BLyS [21] = biological target: T5, soluble mouse BLyS; test: cell-based or functional assay
soluble human BLyS [22] = biological target: T4, soluble human BLyS; test: cell-based or functional assay
soluble human BLyS [23] = biological target: T4, soluble human BLyS; test: DELFIA competition, Eu-hBLyS binding to coated TACI
Description: as §3, §4

[24] = biological target: T2, human TACI (R&D Systems receptor …); test: Biacore, binder captured, APRIL injected at 50 nM
Description: as §1

soluble human BLyS [25] = biological target: T4, soluble human BLyS; test: ELISA, soluble hBLyS; soluble hBLyS ELISA

Binder: B1
IC50 (soluble cynomolgus BLyS): 1.46 nM
IC50 (soluble human BLyS [1]): > 100 nM
IC50 (soluble human BLyS [2]): 28 nM
Kd (soluble mouse BLyS [3]): 0.0486 nM
IC50 (soluble mouse BLyS [4]): 0.47 nM

Binder: B2
binding result (mouse APRIL [5]): binds
binding result (human APRIL [6]): binds
Kd (soluble mouse BLyS [7]): 0.177 nM
koff (soluble mouse BLyS [7]): 0.000121 s⁻¹
kon (soluble mouse BLyS [7]): 682000 M⁻¹ s⁻¹
Kd (soluble human BLyS [8]): 0.602 nM
koff (soluble human BLyS [8]): 0.000239 s⁻¹
kon (soluble human BLyS [8]): 397000 M⁻¹ s⁻¹

Binder: B3
IC50 (soluble cynomolgus BLyS): 0.08 nM
IC50 (soluble mouse BLyS [9]): 0.0013 nM
IC50 (soluble human BLyS [10]): 0.1 nM
IC50 (soluble human BLyS [11]): 0.0018 nM
Kd (soluble mouse BLyS [12]): 0.062 nM
koff (soluble mouse BLyS [12]): 4.2e-05 s⁻¹
kon (soluble mouse BLyS [12]): 670000 M⁻¹ s⁻¹
Kd (soluble human BLyS [13]): 0.224 nM
koff (soluble human BLyS [13]): 4.2e-05 s⁻¹
kon (soluble human BLyS [13]): 190000 M⁻¹ s⁻¹
IC50 (soluble mouse BLyS [14]): 0.107 nM
IC50 (soluble human BLyS [15]): 0.0526 nM
binding result (mouse APRIL [16]): no binding (tested: 50 nM)
binding result (human APRIL [17]): no binding (tested: 50 nM)
IC50 (soluble mouse BLyS [18]): < 0.0003 nM
IC50 (soluble human BLyS [19]): 0.43 nM
Kd (soluble mouse BLyS [3]): 0.0145 nM
Kd (soluble human BLyS [20]): 0.4 nM
IC50 (soluble mouse BLyS [4]): 0.16 nM
IC50 mBLyS stimulated, mouse splenic B-cell proliferation (soluble mouse BLyS [21]): 3 ng/mL
IC50 hBLyS stimulated, mouse splenic B-cell proliferation (soluble human BLyS [22]): 4 ng/mL
IC50 (soluble human BLyS [23]): < 0.0003 nM

Binder: B4
binding result [24]: binds

Binder: B5
IC50 (soluble cynomolgus BLyS): 0.11 nM
IC50 (soluble human BLyS [25]): 2.87 nM
